What is called Kd is the concentration at which binding is half-saturated.

Several values for one entry are separate records, joined by “and”; a condition that tells them apart may be missing. Equal entries are not always repeated. Bounds are passed on as bounds.

From patent JP2004500847A (dated 2004) come the findings set out here.

Test [1] addresses HLA-DR on the human B lymphoblastoid cell line LG-2 (human). Description: flow cytometry on LG-2 cells, 35 ug Fab first; competitor 1-1C4 (2 ug). On the technique in general: A flow cytometer gives signals particle by particle.
Test [2] deals with HLA-DR on HLA-DR-positive cell lines (GRANTA-519, MHH-CALL4, Priess or LG2; allotype not stated) (human). In words: cell-based or functional assay.
Test [3] deals with T1, human MHC class II DR protein (DRA*0101/DRB1*0401) purified from Priess cells (human, UniProt P01903 26-254; P01911 30-266, limits assumed).
T1 construct: mature; Native heterodimer isolated from cell lysate; Coated on ELISA plates or coupled to a BIAcore CM5 chip; also called HLA-DR protein; MHC-class II DRA*0101/DRB1*0401
T1 MHC II alpha: not shown
T1 MHC II beta: not shown
In words: SPR (Biacore), DR protein on the chip.

B1: MS-GPC-8-Fab (Fab, V domains shown)
VH: QVQLKESGPALVKPTQTLTLTCTFSGFSLSTSGVGVGWIRQPPGKALEWLALIDWDDDKYYSTSLKTRLTISKDTSKNQVVLTMTNMDPVDTATYYCARSPRYRGAFDYWGQGTLVTVSS
VL: DIVLTQPPSVSGAPGQRVTISCSGSSSNIGSNYVSWYQQLPGTAPKLLIYDNNQRPSGVPDRFSGSKSGTSASLAITGLQSEDEADYYCQSYDMPQAVFGGGTKLTVLG
For the molecule B1, the decrease of binding of the mouse antibody in test [1] was found to be 50%. Also, in test [2], the EC50 of cell killing (Priess or LG2 cells), as concentration of the bivalent cross-linked (Fab) dimer is below 60 nM; the EC50 of cell killing (Priess or LG2 cells), as concentration of the monovalent fragment, cross-linked with anti-FLAG M2 is below 120 nM; the EC50 of cell killing (concentration of the bivalent cross-linked Fab dimer; cell line not named here) was 20 nM and 40 nM; the maximal killing of MHH-CALL 4 cells was 65%. In addition, binding in test [3] was characterised by a dissociation constant (Kd) of 346 nM.
